In patent publication US8853149:

B1: cyclic III peptide 5 (KLKLK-T1-MVASW-T1) (peptide)
peptide: KLKLKMVASW
modifications: here or on the partner: head-to-tail cyclic; two T1 linkers (NH2CH2CH2N(SO2Me)CH2COOH) join the strands
B2: cyclic III peptide 7 (KLKLK-T1-AVVSW-T1) (peptide)
peptide: KLKLKAVVSW
modifications: here or on the partner: head-to-tail cyclic; two T1 linkers (NH2CH2CH2N(SO2Me)CH2COOH) join the strands
B3: cyclic III peptide 6 (KLKLK-T1-MAVSW-T1) (peptide)
peptide: KLKLKMAVSW
modifications: here or on the partner: head-to-tail cyclic; two T1 linkers (NH2CH2CH2N(SO2Me)CH2COOH) join the strands
B4: cyclic III peptide 3 (KLKLK-T1-MVVSA-T1) (peptide)
peptide: KLKLKMVVSA
modifications: here or on the partner: head-to-tail cyclic; two T1 linkers (NH2CH2CH2N(SO2Me)CH2COOH) join the strands
B5: cyclic III peptide 4 (KLKLK-T1-MVVAW-T1) (peptide)
peptide: KLKLKMVVAW
modifications: here or on the partner: head-to-tail cyclic; two T1 linkers (NH2CH2CH2N(SO2Me)CH2COOH) join the strands

The binders below were run against integrins (assay: cell-based or functional assay).

Question: Which IC50 (µM), bioactivity of cyclic III peptide analogs does the source give for B1 here?
Answer: 19 µM

Question: With B2 as the binder, how does the IC50 (µM), bioactivity of cyclic III peptide analogs read?
Answer: 31 µM

Question: B3 was tested. Which IC50 (µM), bioactivity of cyclic III peptide analogs did it give?
Answer: 6 µM

Question: Which IC50 (µM), bioactivity of cyclic III peptide analogs does the source give for B4 here?
Answer: 57 µM

Question: How did the IC50 (µM), bioactivity of cyclic III peptide analogs turn out when B5 was run?
Answer: 4 µM
